Results as given in article doi:10.1101/2023.04.12.536520, “Structural bases for the Charcot–Marie–Tooth disease induced by single amino acid substitutions of myelin protein zero” (bioRxiv, 2023).

B1: ECD-His D32G variant (domain or fragment, human)
chain: MGIVVYTDREVHGAVGSRVTLHCSFWSSEWVSDGISFTWRYQPEGGRDAISIFHYAKGQPYIDEVGTFKERIQWVGDPRWKDGSIVIHNLDYSDNGTFTCDVKNPPDIVGKTSQVTLYVFEKVPTR
notes: two artificial amino acids at the N-terminus; myelin protein zero (MPZ, P0), human, extracellular domain I1 through V121; I1 is residue 30 of the precursor P25189; linker between the ECD and the His6-tag; CMT2-related substitution at the head-to-head interface; not shown: His6, C-terminal, kept
B2: ECD-His R38A variant (domain or fragment, human)
chain: MGIVVYTDREVHGAVGSRVTLHCSFWSSEWVSDDISFTWAYQPEGGRDAISIFHYAKGQPYIDEVGTFKERIQWVGDPRWKDGSIVIHNLDYSDNGTFTCDVKNPPDIVGKTSQVTLYVFEKVPTR
notes: two artificial amino acids at the N-terminus; myelin protein zero (MPZ, P0), human, extracellular domain I1 through V121; I1 is residue 30 of the precursor P25189; linker between the ECD and the His6-tag; trans interface substitution; not shown: His6, C-terminal, kept
B3: ECD-His R45A variant (domain or fragment, human)
chain: MGIVVYTDREVHGAVGSRVTLHCSFWSSEWVSDDISFTWRYQPEGGADAISIFHYAKGQPYIDEVGTFKERIQWVGDPRWKDGSIVIHNLDYSDNGTFTCDVKNPPDIVGKTSQVTLYVFEKVPTR
notes: as for B2
B4: ECD-His H52R variant (domain or fragment, human)
chain: MGIVVYTDREVHGAVGSRVTLHCSFWSSEWVSDDISFTWRYQPEGGRDAISIFRYAKGQPYIDEVGTFKERIQWVGDPRWKDGSIVIHNLDYSDNGTFTCDVKNPPDIVGKTSQVTLYVFEKVPTR
notes: two artificial amino acids at the N-terminus; myelin protein zero (MPZ, P0), human, extracellular domain I1 through V121; I1 is residue 30 of the precursor P25189; linker between the ECD and the His6-tag; DSS-related substitution at the trans interface; not shown: His6, C-terminal, kept
B5: ECD-His D46V variant (domain or fragment, human)
chain: MGIVVYTDREVHGAVGSRVTLHCSFWSSEWVSDDISFTWRYQPEGGRVAISIFHYAKGQPYIDEVGTFKERIQWVGDPRWKDGSIVIHNLDYSDNGTFTCDVKNPPDIVGKTSQVTLYVFEKVPTR
notes: two artificial amino acids at the N-terminus; myelin protein zero (MPZ, P0), human, extracellular domain I1 through V121; I1 is residue 30 of the precursor P25189; linker between the ECD and the His6-tag; CMT2-related substitution at the trans interface; not shown: His6, C-terminal, kept
B6: ECD-His A47V variant (domain or fragment, human)
chain: MGIVVYTDREVHGAVGSRVTLHCSFWSSEWVSDDISFTWRYQPEGGRDVISIFHYAKGQPYIDEVGTFKERIQWVGDPRWKDGSIVIHNLDYSDNGTFTCDVKNPPDIVGKTSQVTLYVFEKVPTR
notes: as for B5
B7: ECD-His E68V variant (domain or fragment, human)
chain: MGIVVYTDREVHGAVGSRVTLHCSFWSSEWVSDDISFTWRYQPEGGRDAISIFHYAKGQPYIDEVGTFKVRIQWVGDPRWKDGSIVIHNLDYSDNGTFTCDVKNPPDIVGKTSQVTLYVFEKVPTR
notes: two artificial amino acids at the N-terminus; myelin protein zero (MPZ, P0), human, extracellular domain I1 through V121; I1 is residue 30 of the precursor P25189; linker between the ECD and the His6-tag; CMT2-related substitution at the cis interface; not shown: His6, C-terminal, kept
B8: ECD-His D32N variant (domain or fragment, human)
chain: MGIVVYTDREVHGAVGSRVTLHCSFWSSEWVSDNISFTWRYQPEGGRDAISIFHYAKGQPYIDEVGTFKERIQWVGDPRWKDGSIVIHNLDYSDNGTFTCDVKNPPDIVGKTSQVTLYVFEKVPTR
notes: two artificial amino acids at the N-terminus; myelin protein zero (MPZ, P0), human, extracellular domain I1 through V121; I1 is residue 30 of the precursor P25189; linker between the ECD and the His6-tag; CMT1B-related substitution at the head-to-head interface; the recombinant protein was non-glycosylated; not shown: His6, C-terminal, kept
B9: human MPZ-ECD without a histidine-tag (ECD) (domain or fragment)
chain: MGIVVYTDREVHGAVGSRVTLHCSFWSSEWVSDDISFTWRYQPEGGRDAISIFHYAKGQPYIDEVGTFKERIQWVGDPRWKDGSIVIHNLDYSDNGTFTCDVKNPPDIVGKTSQVTLYVFEKV
notes: two artificial amino acids at the N-terminus; myelin protein zero (MPZ, P0), human, extracellular domain I1 through V121; I1 is residue 30 of the precursor P25189; Non-glycosylated; also called hMPZ-ECD
B10: human MPZ-ECD with a C-terminal histidine-tag (ECD-His), wild type (domain or fragment)
chain: MGIVVYTDREVHGAVGSRVTLHCSFWSSEWVSDDISFTWRYQPEGGRDAISIFHYAKGQPYIDEVGTFKERIQWVGDPRWKDGSIVIHNLDYSDNGTFTCDVKNPPDIVGKTSQVTLYVFEKVPTR
notes: two artificial amino acids at the N-terminus; myelin protein zero (MPZ, P0), human, extracellular domain I1 through V121; I1 is residue 30 of the precursor P25189; linker between the ECD and the His6-tag; Non-glycosylated; also called hMPZ-ECD-His; WT; not shown: His6, C-terminal, kept

Biological target: the molecule itself
Assay: SEC; free ECD or ECD-His variants; HiLoad Superdex 200 16/600 (Fig. 4A-C) or Superdex 200 Increase 10/300 (Fig. 3, Fig. S1); standard buffer (20 mM Tris-HCl pH 7.4, 100 mM NaCl); 4 °C; 8-mer to monomers

Stoichiometry N, 8:
B1
B2
B3
B4
B5
B6
B7
B8
B9

Biological target: the molecule itself
Assay: SEC-MALS; ECD-His injected at 52 µM; Superdex 200 Increase 10/300 GL; standard buffer (20 mM Tris-HCl pH 7.4, 100 mM NaCl); room temperature; 8-mer to monomers

Stoichiometry N, 8:
B10
